Source: publication doi:10.1101/2025.01.24.634724, “Receptor Activity-Modifying Protein 3 enhances GLP-1-mediated Insulin Secretion” (bioRxiv, 2025)

Tests used:
[1] = target: Nluc-GLP-1R co-expressed with FLAG-RAMP3 (UniProt P43220)
Nluc-GLP-1R (human) = Nluc-GLP-1R (human) (UniProt P43220)
Nluc-GLP-1R (human), sequence (P43220 24-463): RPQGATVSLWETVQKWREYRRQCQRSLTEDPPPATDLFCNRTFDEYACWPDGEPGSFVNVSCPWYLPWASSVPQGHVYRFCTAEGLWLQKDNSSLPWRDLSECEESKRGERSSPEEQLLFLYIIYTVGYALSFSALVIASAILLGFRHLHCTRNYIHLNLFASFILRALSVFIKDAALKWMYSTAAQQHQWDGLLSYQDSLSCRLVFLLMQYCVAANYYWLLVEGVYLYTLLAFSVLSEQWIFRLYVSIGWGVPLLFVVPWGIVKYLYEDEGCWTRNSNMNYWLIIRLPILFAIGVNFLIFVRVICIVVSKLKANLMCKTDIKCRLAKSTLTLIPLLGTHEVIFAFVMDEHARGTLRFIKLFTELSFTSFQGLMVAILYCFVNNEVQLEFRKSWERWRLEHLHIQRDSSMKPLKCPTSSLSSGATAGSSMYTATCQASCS

Nluc-GLP-1R co-expressed with FLAG-RAMP3, sequence (P43220 24-463, chain 1 of 2): as the sequence (P43220 24-463) above
Nluc-GLP-1R co-expressed with FLAG-RAMP3, sequence (O60896 24-148, chain 2 of 2, further chain): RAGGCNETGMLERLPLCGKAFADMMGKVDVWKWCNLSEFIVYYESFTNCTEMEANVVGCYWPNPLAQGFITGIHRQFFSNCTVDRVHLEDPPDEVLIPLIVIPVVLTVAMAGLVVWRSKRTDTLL

GLP-1 (7–36amide) (peptide)
(Ca2+)i mobilisation in HEK293T cells, pEC50, RAMP3 over-expressed (2:1) [1]: 8.1 pEC50 | (Ca2+)i mobilisation in HEK293T cells, pEC50, receptor without RAMP3 (Nluc-GLP-1R (human)): 7.2 pEC50

exendin-4 (from UniProt P26349 48-87) (peptide)
(Ca2+)i mobilisation in HEK293T cells, maximal response, receptor without RAMP3 (percent of 10 μM ionomycin) (Nluc-GLP-1R (human)): 43.6
